Sequences and labels used below:
B1: COV2-2531 Fab (Fab, V domains shown)
VH: QVQLQESGPGLVKPSETLSLTCSVSGGSIRSYFWNWVRQPPGKGLEWIGYIYYSGSTNYKPSFKSRVTISLDTSKNQISLKLSSVTAADTAVYYCARATWLRDAFGIWGQGTMVTVSS
VL: NFMLTQPHSVSESPGKTVTISCTGNSGSIASNYVQWYQQRPGSAPTTVIYEDSQRPSGVPDRFSGSIDSSSNSASLTISGLKTEDEADYYCQSFDSGNVVFGGGTKLTVL
B2: C126 Fab (Fab, V domains shown)
VH: QVQLQESGPGLVKPSETLSLSCAVSGGSIGSYFWSWIRQPPGKGLEWIGYLHYSGSTNYNPSLKSRVTISVDTSKNQFSLKLSSVTAADTAVYYCARLQWLRGAFDIWGQGTMVTVSS
VL: NFMLTQPHSVSESPGKTVTISCTGSSGSIASNYVQWYQQRPGSAPTTVINEDNQRPSGVPDRFSGSIDSSSNSASLTISGLKTEDEADYYCQSYDSSNLVFGGGTKLTVL
B3: CnC2t1p1_B10 (antibody, V domains shown)
VH: QVQLVQSGAEVKKPGSSVKVSCKASGGTFSSYAISWVRQAPGQGLEWMGGIIPIFGTANYAQKFQGRVTITADKSTSTAYMELSSLRSEDTAVYYCARVSGYDSSGYWGDYWGQGTLVTVSS
VL: EIVLTQSPATLSLSPGERATLSCRASQSVSSYLAWYQQKPGQAPRLLIYDASNRATGIPARFSGSGSGTDFTLTISSLEPEDFAVYYCQQRSNWPPALTFGGGTKVEIK
B4: COV2-2002 (antibody, V domains shown)
VH: EVQLVESGGGLVQPGGSLRLSCAASGFTFSFYWMSWVRQAPGKGLEWVANIKQDGSEKYYVDSVKGRSTISRDNAKNSLYLQMNSLRAEDTAVYYCARVGSSSWYFDYWGQGTLVTVSS
VL: not shown
B5: COV2-2333 (antibody, V domains shown)
VH: EVQLVESGGGLVQPGGSLRLSCAASGFTFSIYWMSWVRQAPGKGLQWVANIKQDASEKYYVDSVKGRFTISRDNAKNSLYLQMNSLRAEDTAVYYCARLGGSSWHFDYWGQGTLVTVSS
VL: SYELTQPPSVSVSPGQTASITCSGDKLGDKYSSWYQQKPGQSPVLVIYEDTKRPSGIPERFSGSNSGNTATLTISGTQAMDEADYYCQAWSSSTAVFGGGTKLTVL
B6: COV2-2531 (antibody, V domains shown)
VH: QVQLQESGPGLVKPSETLSLTCSVSGGSIRSYFWNWVRQPPGKGLEWIGYIYYSGSTNYKPSFKSRVTISLDTSKNQISLKLSSVTAADTAVYYCARATWLRDAFGIWGQGTMVTVSS
VL: NFMLTQPHSVSESPGKTVTISCTGNSGSIASNYVQWYQQRPGSAPTTVIYEDSQRPSGVPDRFSGSIDSSSNSASLTISGLKTEDEADYYCQSFDSGNVVFGGGTKLTVL
B7: C126 (antibody, V domains shown)
VH: QVQLQESGPGLVKPSETLSLSCAVSGGSIGSYFWSWIRQPPGKGLEWIGYLHYSGSTNYNPSLKSRVTISVDTSKNQFSLKLSSVTAADTAVYYCARLQWLRGAFDIWGQGTMVTVSS
VL: NFMLTQPHSVSESPGKTVTISCTGSSGSIASNYVQWYQQRPGSAPTTVINEDNQRPSGVPDRFSGSIDSSSNSASLTISGLKTEDEADYYCQSYDSSNLVFGGGTKLTVL

In the first assay the target is variant of S6P_(ecto) protein containing a C-terminal Twin-Strep-tag (SARS-CoV-2, Wuhan-Hu-1 (assumed), UniProt P0DTC2, stabilised). Briefly: negative stain electron microscopy.
As for B1, the binding result is given as “binds”.

For B2, the binding result is given as “binds”.

In another assay the target is full-length SARS-CoV-2 S protein expressed in HEK293T cells (SARS-CoV-2, Wuhan-Hu-1, UniProt P0DTC2). Briefly: flow cytometry on cells. (A flow cytometer gives signals particle by particle.)
Regarding B3, the binding result is “binds”.

For B4, the binding result is recorded as “binds”.

As to B5, the binding result is listed as “binds”.

For the molecule B6, the binding result is “binds”.

In the case of B7, the binding result is given as “binds”.

Source of the values: PMC8352653 (Cell Reports, 2021).
